Laboratory results reported in patent US20250074980A1 (BRIGHAM AND WOMEN S HOSPITAL, published 2025).
Residue numbers refer to the chain shown, from its start. Numbers in names are those of the source. Like-named read-outs stand apart in the source and are kept apart here.

T1: His-tagged CEACAM1 (human, UniProt P13688 35-428)
T1 construct: 45 kDa SPR analyte; also called CEACAM1-HIS; CEACAM1 analyte
T1 sequence: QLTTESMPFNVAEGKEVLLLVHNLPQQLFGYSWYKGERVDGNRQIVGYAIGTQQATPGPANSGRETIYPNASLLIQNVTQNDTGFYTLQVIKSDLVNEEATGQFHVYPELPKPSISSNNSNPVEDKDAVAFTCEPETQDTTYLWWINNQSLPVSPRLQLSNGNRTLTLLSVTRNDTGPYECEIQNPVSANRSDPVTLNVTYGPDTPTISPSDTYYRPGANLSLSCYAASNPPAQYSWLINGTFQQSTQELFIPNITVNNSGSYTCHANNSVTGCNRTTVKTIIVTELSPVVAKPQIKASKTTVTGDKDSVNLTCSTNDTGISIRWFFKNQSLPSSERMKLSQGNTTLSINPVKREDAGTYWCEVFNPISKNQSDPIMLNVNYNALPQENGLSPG

B1: CP08A03/Vκ8 S29A (antibody, IgG4, V domains shown)
VH: EVQLLESGGGLVQPGGSLRLSCAASGFIFNNHAISWVRQAPGKGLEWVATISSGGTYTYYPDSVKGRFTISRDNSKNTLYLQMNSLKAEDTAMYYCARHDFDYDAAWFAYWGQGTLVTVSS
VL: EIVLTQSPATLSLSPGERATLSCRANSAVSYMYWYQQKPGQAPRPWIYLTSNRATGVPARFSGSGSGTDYTLTISSLEPEDFAVYYCQQWSSNPPTFGQGTKLEIK
notes: IgG4 (S241P), kappa
B2: CP08B11/Vκ8 S29A (antibody, IgG4, V domains shown)
VH: B1 VH with I28T, N30T, A33G, I34M
VL: B1 VL
notes: IgG4 (S241P), kappa
B3: CP08F07/Vκ8 S29A (antibody, IgG4, V domains shown)
VH: B1 VH with I28T, N30T, N31D
VL: B1 VL
notes: IgG4 (S241P), kappa
B4: CP08B04/Vκ8 S29A (antibody, IgG4, V domains shown)
VH: B1 VH with N30S, N31S, A33G, I34M, D104F, A105P, Y110L
VL: B1 VL
notes: IgG4 (S241P), kappa
B5: CP08C04/Vκ8 S29A (antibody, IgG4, V domains shown)
VH: B1 VH with I28T, N30S, N31S, A33G, I34M
VL: B1 VL
notes: IgG4 (S241P), kappa
B6: CP08B03/Vκ8 S29A (antibody, IgG4, V domains shown)
VH: B1 VH with I28T, N30T, N31A
VL: B1 VL
notes: IgG4 (S241P), kappa
B7: CP08G10/Vκ8 S29A (antibody, IgG4, V domains shown)
VH: B1 VH with N30S, N31S, A33G, I34M, D104F, A105P, Y110F
VL: B1 VL
notes: IgG4 (S241P), kappa
B8: VH1/CP08G01 (antibody, IgG4, V domains shown)
VH: B1 VH with N30S, N31S, A33G, I34M
VL: B1 VL with W90N, S91T, S92N, N93L, P95F
notes: IgG4 (S241P), kappa
B9: CP08D01/Vκ8 S29A (antibody, IgG4, V domains shown)
VH: B1 VH with I28T, N31A, A33G, I34M
VL: B1 VL
notes: IgG4 (S241P), kappa
B10: CP09E03/Vκ8 S29A (antibody, IgG4, V domains shown)
VH: B1 VH with I28T, N30S, N31A
VL: B1 VL
notes: IgG4 (S241P), kappa
B11: CP09B02/Vκ8 S29A (antibody, IgG4, V domains shown)
VH: B1 VH with I28T, N30T, N31S
VL: B1 VL
notes: IgG4 (S241P), kappa
B12: CP08B06/Vκ8 S29A (antibody, IgG4, V domains shown)
VH: B1 VH with I28S, N31S
VL: B1 VL
notes: IgG4 (S241P), kappa
B13: CP09F03/Vκ8 S29A (antibody, IgG4, V domains shown)
VH: B1 VH with I28T, A33G, I34M
VL: B1 VL
notes: IgG4 (S241P), kappa
B14: CP09B03/CP08E01 (antibody, IgG4, V domains shown)
VH: B1 VH with I28T, N31A
VL: B1 VL with S91T, S92T, N93F
notes: IgG4 (S241P), kappa
B15: CP09B03/CP08D02 (antibody, IgG4, V domains shown)
VH: B1 VH with I28T, N31A
VL: B1 VL with S91T, N93F
notes: IgG4 (S241P), kappa
B16: CP08B01/Vκ8 S29A (antibody, IgG4, V domains shown)
VH: B1 VH with I28T, N30S, N31A, I34M
VL: B1 VL
notes: IgG4 (S241P), kappa
B17: CP08D11/Vκ8 S29A (antibody, IgG4, V domains shown)
VH: B1 VH with F27Y, I28S, N30S, N31A, A33G, I34M
VL: B1 VL
notes: IgG4 (S241P), kappa
B18: CP09B03/CP08F05 (antibody, IgG4, V domains shown)
VH: B1 VH with I28T, N31A
VL: B1 VL with S91T
notes: IgG4 (S241P), kappa
B19: VH1/CP08G02 (antibody, IgG4, V domains shown)
VH: B1 VH with N30S, N31S, A33G, I34M
VL: B1 VL with S91T, S92N
notes: IgG4 (S241P), kappa
B20: CP08H01/Vκ8 S29A (antibody, IgG4, V domains shown)
VH: B1 VH with N30S, N31S, A33G, I34M, R98K, D100P, F101P, D104F
VL: B1 VL
notes: IgG4 (S241P), kappa
B21: CP08A06/Vκ8 S29A (antibody, IgG4, V domains shown)
VH: B1 VH with F27Y, I28S, N30S, N31S, A33G, I34M
VL: B1 VL
notes: IgG4 (S241P), kappa
B22: CP08C01/Vκ8 S29A (antibody, IgG4, V domains shown)
VH: B1 VH with F27Y, I28S, N30S, A33G, I34M
VL: B1 VL
notes: IgG4 (S241P), kappa
B23: VH1/CP09F05 (antibody, IgG4, V domains shown)
VH: B1 VH with N30S, N31S, A33G, I34M
VL: B1 VL with W90N, S91T, S92A, N93L, P95F
notes: IgG4 (S241P), kappa
B24: CP09G03/Vκ8 S29A (antibody, IgG4, V domains shown)
VH: B1 VH with I28T, N31A, I34M
VL: B1 VL
notes: IgG4 (S241P), kappa
B25: CP08A08/Vκ8 S29A (antibody, IgG4, V domains shown)
VH: B1 VH with N30T, A33G, I34M
VL: B1 VL
notes: IgG4 (S241P), kappa
B26: CP09A04/Vκ8 S29A (antibody, IgG4, V domains shown)
VH: B1 VH with I28S, N31A, I34M
VL: B1 VL
notes: IgG4 (S241P), kappa
B27: CP09D03/Vκ8 S29A (antibody, IgG4, V domains shown)
VH: B1 VH with I28T, N30S, N31S
VL: B1 VL
notes: IgG4 (S241P), kappa

Columns and labels:
His-tagged CEACAM1 [1] = target: T1, His-tagged CEACAM1; assay: SPR single-cycle, supernatant IgG captured
Description: In order to assess the binding of the humanized, affinity matured reformatted lead IgGs, single-cycle kinetics analysis was performed on crude supernatants using a Biacore T200 running Biacore T200 Control Software V2.0.1 and Biacore T200 Evaluation Software V3.0. Antibodies were diluted in HBS-P+ to a final concentration of 0.5 μg/ml. At the start of each cycle, antibodies were loaded onto Fc2, Fc3 and Fc4 of the Protein A chip. IgGs were captured at a flow rate of 10 μl/min to give an immobilisation level (RL) of ˜100 RU (a level calculated to obtain a Rₘₐₓ of ˜50-150 RU once the analyte is bound). The surface was then allowed to stabilize. Single-cycle kinetics data was obtained with CEACAM1 as the analyte at a flow rate of 80 μl/min to minimize any potential mass transfer effects. Multiple repeats with the parent (VH1/Vκ8 S29A) antibody were performed to check the stability of the surface and analyte over the kinetic cycles. The signal from the reference channel Fc1 (no antibody) was subtracted from that of Fc2, Fc3 and Fc4 to correct for differences in non-specific binding to the reference surface. A three point, two-fold dilution range from 70 nM to 280 nM CEACAM1 without regeneration between each concentration was used. The signal from each antibody blank run (no CEACAM1) was subtracted to correct for differences in surface stability. The association phase for the three injections of increasing concentrations of CEACAM1 was monitored for 80 seconds each time and a single dissociation phase was measured for 150 seconds following the last injection of CEACAM1. Regeneration of the Protein A surface was conducted using two injections of 10 mM glycine-HCL pH 1.5 followed by a stabilization period of 250 seconds.

His-tagged CEACAM1 [2] = target: T1, His-tagged CEACAM1; assay: SPR single-cycle, supernatant IgG captured; remark: listed apart in the source
Method in brief: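 On a Biacore T200 run at 25° C in HBS-P+ (pH 7.4), IgG captured on Protein A was probed with His-tagged CEACAM1 by single-cycle surface plasmon resonance. Fitted Kon, koff and Kd gave a relative KD referenced to the parent antibody from the same experiment. The IgG came from filtered, ELISA-quantified supernatants of HEK EBNA cells transiently transfected with PEI and harvested after 5-7 days.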

Binder	Kd (His-tagged CEACAM1 [1]) [nM]	koff (His-tagged CEACAM1 [1]) [s⁻¹]	kon (His-tagged CEACAM1 [1]) [M⁻¹ s⁻¹]	relative KD to parent (His-tagged CEACAM1 [1])	Kd (His-tagged CEACAM1 [2]) [nM]	koff (His-tagged CEACAM1 [2]) [s⁻¹]	kon (His-tagged CEACAM1 [2]) [M⁻¹ s⁻¹]	relative KD to parent (His-tagged CEACAM1 [2])
B1	430	0.039	93000	1.3	–	–	–	–
B2	610	0.059	96000	0.9	–	–	–	–
B3	470	0.081	170000	1.2	–	–	–	–
B4	410	0.049	120000	1.4	–	–	–	–
B5	1200	0.26	220000	0.5	–	–	–	–
B6	360	0.069	200000	1.6	–	–	–	–
B7	630	0.055	87000	0.9	–	–	–	–
B8	400	0.047	120000	1.5	–	–	–	–
B9	300	0.043	140000	1.9	–	–	–	–
B10	400	0.037	110000	1.6	–	–	–	–
B11	340	0.04	120000	1.6	–	–	–	–
B12	420	0.044	110000	1.3	–	–	–	–
B13	1000	0.076	74000	0.5	–	–	–	–
B14	–	–	–	–	250	0.046	180000	2.2
B15	–	–	–	–	290	0.059	210000	1.9
B16	610	0.044	72000	0.9	–	–	–	–
B17	2000	0.17	86000	0.3	–	–	–	–
B18	–	–	–	–	150	0.017	110000	3.6
B19	2300	0.052	23000	0.3	–	–	–	–
B20	420	0.087	210000	1.3	–	–	–	–
B21	440	0.075	170000	1.3	–	–	–	–
B22	1200	0.1	82000	0.5	–	–	–	–
B23	1600	0.055	35000	0.4	–	–	–	–
B24	350	0.038	110000	1.5	–	–	–	–
B25	1300	0.073	57000	0.4	–	–	–	–
B26	400	0.036	90000	1.4	–	–	–	–
B27	310	0.033	110000	1.8	–	–	–	–
